B1: KCNA3 (parent)
chain: YQSGGRIRRPVNVPIDIFSEEIRF

Variants of: B1
Experiment: protein stability index of a GFP-peptide fusion (GPS, HEK-293T) (PSI 1-6); higher = more stable
Details: c terminus: a fixed tail appended
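Further: lentivirally expressed fusions sorted by FACS into six bins by GFP to DsRed ratio, PSI derived from sequencing read proportions per bin multiplied by bin number.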

Protein stability index of substitutions, site by site:
P10: G 2.48 | N 1.64 | T 2.83 | S 2.43 | V 1.91 | I 1.78 | W 2.7 | Q 1.53 | R 1.64 | E 2.02 | F 1.39 | M 1.62 | A 2.31 | D 1.87 | K 1.33 | C 2.03 | Y 1.76 | L 1.6
I15: S 2.69 | D 2.33 | C 2.13 | A 3.48 | Q 2.56 | H 2.16 | W 1.92 | N 2.36 | E 2.11 | M 2.13 | Y 1.63 | K 2.19 | T 2.37 | R 2.41 | F 1.48 | G 2.4 | P 2.03 | L 1.83
R6: L 1.31 | A 1.9 | G 1.85 | Y 1.86 | D 2.15 | Q 2.79 | W 1.86 | C 1.85 | K 1.59 | I 1.9 | V 1.95 | S 2.08 | E 2.34 | H 2.23 | F 1.65 | T 1.76 | N 2.11 | P 1.91
N12: M 2.26 | S 2.63 | T 2.17 | D 1.8 | E 1.8 | G 1.83 | A 1.8 | P 2.11 | W 2.21 | K 1.91 | F 1.35 | Y 1.08 | H 3.14 | I 1.93 | V 1.41 | L 1.4 | C 2.62 | Q 2.34 | R 1.28
I17: K 2.05 | L 1.86 | P 3.32 | C 2.48 | M 2.21 | V 2.48 | W 1.23 | H 1.91 | D 2.34 | Y 2.79 | T 1.97 | Q 1.89 | F 1.76 | G 2.19 | A 2.85 | E 3.04 | R 2.48 | S 2.33 | N 2.74
V11: I 1.7 | D 1.69 | K 1.85 | G 1.79 | Y 2.18 | N 2.42 | T 1.98 | S 1.74 | F 2.02 | R 2.37 | E 3.13 | C 2.39 | P 1.83 | A 2.49 | L 1.44 | Q 2.03 | H 1.66 | M 2.01
P14: H 2.02 | V 1.61 | M 3.25 | I 2.88 | K 1.78 | E 1.43 | C 1.33 | L 2.85 | A 1.81 | F 1.07 | G 1.9 | D 1.85 | W 2.98 | S 1.42 | T 1.81 | Q 3.61
R9: P 2.26 | D 1.62 | G 2.23 | F 1.81 | S 2.06 | V 1.41 | M 1.61 | N 2.12 | C 2.35 | T 2.48 | K 1.78 | H 3.44 | I 2.27 | Y 1.72 | A 2.45 | Q 1.87 | E 2.26 | L 2.05
F18: H 2.29 | K 1.99 | L 2.63 | R 2.11 | V 2.41 | A 2.68 | G 2.49 | Q 1.81 | C 2.36 | I 1.49 | S 2.8 | E 3.23 | Y 2.2 | M 2.35 | D 2.3 | T 2.4 | N 3.17 | P 2.55
D16: H 1.84 | L 1.88 | V 1.19 | Y 1.39 | A 3.22 | M 1.73 | R 1.64 | G 1.73 | I 2.51 | C 1.41 | W 1.87 | T 2.51 | N 2.01 | K 1.8 | S 2.42 | P 2.34 | F 1.33 | Q 2.61
G5: R 2.08 | P 2.32 | A 2.38 | T 2.54 | W 3.41 | M 1.37 | F 1.68 | N 2 | K 2.2 | Q 2.5 | S 2.37 | D 2.02 | L 2.09 | H 2.9 | I 1.94 | C 1.91 | V 2.05 | E 2.58 | Y 1.49
E20: F 2.93 | Y 2.34 | K 2.29 | H 2.04 | S 1.82 | R 1.61 | P 2.11 | M 1.96 | N 2.52 | Q 1.68 | G 1.37 | C 2.19 | D 2.26 | T 1.53 | A 2.06
I22: A 1.34 | G 1.68 | D 2.5 | F 1.69
S3: V 2.01 | Y 2.21 | R 2.59 | T 2.06 | P 2.22 | Q 2.44 | M 1.56 | W 2.27 | N 2.23
V13: G 2.31 | I 2.43 | R 2.01 | T 1.82 | P 1.86 | E 2.14 | K 2.36 | S 2.11 | W 2.01 | N 2.13 | L 1.95 | D 2.14 | Y 1.69 | Q 2.42 | C 1.78 | M 2.25 | H 2.19 | F 1.86 | A 1.88
R8: A 2.57 | I 3.3 | P 2.02 | H 4.19 | T 2.07 | L 1.26 | D 2.13 | F 2.03 | N 2.2 | Q 1.67 | C 2.03 | E 2.3 | Y 3.3 | V 1.77 | M 2.03 | K 2.47 | S 1.44
E21: C 2.51 | D 1.56 | L 2.09 | T 1.95 | H 2 | V 1.97 | R 2.38 | M 1.87 | K 1.84 | A 2.27 | I 1.6 | Q 2.75 | S 1.48 | F 1.62 | N 2.33 | Y 2.56 | P 1.65
S19: Q 1.68 | C 1.39 | Y 2.4 | E 1.87 | G 2.52 | F 1.51 | N 2.74 | R 1.64 | P 1.73 | D 2.43 | A 1.83 | I 1.85 | H 1.49 | K 1.54 | T 2.6 | L 1.41
I7: H 1.57 | E 2.17 | G 2.41 | N 1.73 | V 2.4 | Q 2.52 | Y 2.04 | P 2.51 | S 2.38 | D 2.92 | M 2.44 | R 1.86 | A 2.83 | T 1.91 | F 1.62 | W 2.77 | L 1.69 | C 2.38 | K 3.34
G4: D 2.07 | H 1.97 | L 2.31 | V 2.05 | E 2.73 | W 2 | R 2.15 | F 1.83 | A 1.69 | M 2.1 | S 3.01 | T 2.28 | Q 2.37 | P 2.21 | C 1.93 | N 1.92 | Y 1.79 | K 2.82 | I 2.06
